As usually defined, the Kd is the constant that tells how readily two partners part at equilibrium. Lower therefore signals a tighter complex. Usually IC50 stands for the midpoint of a concentration-inhibition curve. High values mean weaker potency in that assay, low ones greater potency in that assay.

Data on four molecules can be found in patent publication US20090209006 (published 2009).

B1: TACI (d1-29, d111-154)-Fc5 (protein)
chain: MDAMKRGLCCVLLLCGAVFVSLSQEIHAELRRFRRAMRSCPEEQYWDPLLGTCMSCKTICNHQSQRTCAAFCRSLSCRKEQGKFYDHLLRDCISCASICGQHPKQCAYFCENKLRSEPKSSDKTHTCPPCPAPEAEGAPSVFLFPPKPKDTLMISRTPEVTCVVVDVSHEDPEVKFNWYVDGVEVHNAKTKPREEQYNSTYRVVSVLTVLHQDWLNGKEYKCKVSNKALPSSIEKTISKAKGQPREPQVYTLPPSRDELTKNQVSLTCLVKGFYPSDIAVEWESNGQPENNYKTTPPVLDSDGSFFLYSKLTVDKSRWQQGNVFSCSVMHEALHNHYTQKSLSLSPGK
B2: TACI (d1-29)-Fc5 (protein)
chain: MDAMKRGLCCVLLLCGAVFVSLSQEIHAELRRFRRAMRSCPEEQYWDPLLGTCMSCKTICNHQSQRTCAAFCRSLSCRKEQGKFYDHLLRDCISCASICGQHPKQCAYFCENKLRSPVNLPPELRRQRSGEVENNSDNSGRYQGLEHRGSEASPALPGLKEPKSSDKTHTCPPCPAPEAEGAPSVFLFPPKPKDTLMISRTPEVTCVVVDVSHEDPEVKFNWYVDGVEVHNAKTKPREEQYNSTYRVVSVLTVLHQDWLNGKEYKCKVSNKALPSSIEKTISKAKGQPREPQVYTLPPSRDELTKNQVSLTCLVKGFYPSDIAVEWESNGQPENNYKTTPPVLDSDGSFFLYSKLTVDKSRWQQGNVFSCSVMHEALHNHYTQKSLSLSPGK
B3: TACI (d1-29, d107-154)-Fc5 (protein)
chain: MDAMKRGLCCVLLLCGAVFVSLSQEIHAELRRFRRAMRSCPEEQYWDPLLGTCMSCKTICNHQSQRTCAAFCRSLSCRKEQGKFYDHLLRDCISCASICGQHPKQCAYFCENEPKSSDKTHTCPPCPAPEAEGAPSVFLFPPKPKDTLMISRTPEVTCVVVDVSHEDPEVKFNWYVDGVEVHNAKTKPREEQYNSTYRVVSVLTVLHQDWLNGKEYKCKVSNKALPSSIEKTISKAKGQPREPQVYTLPPSRDELTKNQVSLTCLVKGFYPSDIAVEWESNGQPENNYKTTPPVLDSDGSFFLYSKLTVDKSRWQQGNVFSCSVMHEALHNHYTQKSLSLSPGK
B4: TACI (d1-29, d120-154)-Fc5 (protein)
chain: MDAMKRGLCCVLLLCGAVFVSLSQEIHAELRRFRRAMRSCPEEQYWDPLLGTCMSCKTICNHQSQRTCAAFCRSLSCRKEQGKFYDHLLRDCISCASICGQHPKQCAYFCENKLRSPVNLPPELREPKSSDKTHTCPPCPAPEAEGAPSVFLFPPKPKDTLMISRTPEVTCVVVDVSHEDPEVKFNWYVDGVEVHNAKTKPREEQYNSTYRVVSVLTVLHQDWLNGKEYKCKVSNKALPSSIEKTISKAKGQPREPQVYTLPPSRDELTKNQVSLTCLVKGFYPSDIAVEWESNGQPENNYKTTPPVLDSDGSFFLYSKLTVDKSRWQQGNVFSCSVMHEALHNHYTQKSLSLSPGK

The target of one test is ZTNF4 (BLyS/BAFF) (human). The experiment in a line: other, solution radioligand binding with precipitation.
With B1, the equilibrium dissociation constant (Kd) was 0.115 nM.

B2 displayed a Kd of 0.134 nM.

B3: the affinity, expressed as Kd, was 0.121 nM.

As to B4, the Kd came to 0.092 nM.

The target in a further test is ZTNF4 (BLyS/BAFF) (human). The experiment in a line: competition, 125I-ZTNF4 binding to TACI-coated plates.
In the case of B1, the IC50 came to 2.31 nM.

As to B2, the IC50 amounted to 2.07 nM.

As for B3, the IC50 came to 4.95 nM.

For the molecule B4, the IC50 amounted to 2.21 nM.
